Laboratory results reported in US20240067734A1 (Hoffmann-La Roche, published 2024).

T1: human NKG2D expressed on cells (human, UniProt P26718 1-216)
T1 construct: the cell type is named under assay; also called NKG2D on NK92 cells; HEK293T human NKG2D
T1 chain: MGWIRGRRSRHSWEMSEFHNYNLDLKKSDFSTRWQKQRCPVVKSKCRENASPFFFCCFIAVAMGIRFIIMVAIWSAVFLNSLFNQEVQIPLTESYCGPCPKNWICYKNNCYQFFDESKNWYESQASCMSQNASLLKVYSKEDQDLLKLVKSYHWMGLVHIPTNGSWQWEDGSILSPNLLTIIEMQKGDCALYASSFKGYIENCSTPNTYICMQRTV

T2: his avi huNKG2D ECD (human, biotinylated at the avi-tag (in the ELISA))
T2 construct: Human NKG2D ECD with N-terminal H6-avi tags, forms non-covalent dimers; also called recombinant human NKG2D
T2 chain: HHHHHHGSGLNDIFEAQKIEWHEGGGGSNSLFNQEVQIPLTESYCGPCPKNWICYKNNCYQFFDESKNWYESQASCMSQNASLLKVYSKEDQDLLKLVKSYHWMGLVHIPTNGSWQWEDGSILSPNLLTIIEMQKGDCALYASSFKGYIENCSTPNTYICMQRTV

T3: hu N(A2B2)A-avi-His (human)
T3 construct: Construct containing the A2 domain of human CEA, with avi and His tags; also called human CEA (A2 domain)
T3 chain: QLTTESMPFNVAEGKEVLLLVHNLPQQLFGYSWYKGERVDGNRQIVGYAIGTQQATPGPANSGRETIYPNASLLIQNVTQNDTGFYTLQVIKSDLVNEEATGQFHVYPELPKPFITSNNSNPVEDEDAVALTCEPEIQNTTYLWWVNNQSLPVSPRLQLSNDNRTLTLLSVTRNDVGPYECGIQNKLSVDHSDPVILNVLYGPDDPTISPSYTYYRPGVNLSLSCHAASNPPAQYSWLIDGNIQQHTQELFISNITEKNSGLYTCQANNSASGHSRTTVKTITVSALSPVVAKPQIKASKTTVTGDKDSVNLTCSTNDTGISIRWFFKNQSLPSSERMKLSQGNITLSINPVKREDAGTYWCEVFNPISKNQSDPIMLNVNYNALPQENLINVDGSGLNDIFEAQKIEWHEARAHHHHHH


Assays:
[1] = molecular target: T4, di muNKG2D ECD Fc avi (murine, biotinylated at the avi-tag); assay: ELISA; biotinylated antigen on streptavidin plate
T4 construct: Dimeric fusion of murine NKG2D ECD to the C-terminus of an avi-tagged human IgG1 Fc; also called recombinant murine NKG2D
Procedure: Nunc streptavidin coated plates (MicroCoat, #11974998001) were coated with 25 μl/well biotinylated his avi huNKG2D ECD (SEQ ID NO: 93) at a concentration of 0.5 μg/ml and incubated at room temperature (RT) for 1 hour. After washing with 3×90 μl/well PBST-buffer (10×PBS, Roche #11666789001+0.1% TWEEN® (polysorbate) 20), 25 μl anti-NKG2D antibodies were added in 1:3 dilutions starting at a concentration of 3 μg/ml or alternatively with a 1:30 dilution of the original sample and incubated 1 h at RT. After washing (3×90 μl/well PBST-buffer), 25 μl/well anti hu kappa chain HRP (horseradish peroxidase)-conjugate (Millipore, #AP502P, 1:2000) was added and incubated at RT for 1 h. After washing (3×90 μl/well PBST-buffer) 25 μl/well TMB (3,3′,5,5′-tetramethylbenzidine) substrate (Roche, #11835033001) was added.
Nunc streptavidin coated plates (MicroCoat, #11974998001) were coated with 25 μl/well biotinylated di muNKG2D ECD Fc avi (SEQ ID NO: 98) at a concentration of 1 μg/ml and incubated at room temperature (RT) for 1 hour. The assay was performed as described above for human NKG2D.

[2] = molecular target: T1, human NKG2D expressed on cells; assay: flow cytometry; NK92 cells
[3] = molecular target: T2, his avi huNKG2D ECD; assay: SPR Biacore T200; antigen captured via anti-His, bispecific analyte
Procedure: (§1) On a CM5 chip, an anti-penta-His capture antibody (Qiagen Penta-His Antibody, BSA-free; #34660) was immobilized by standard amine coupling on flow cells 2 and 3 at approximately 12′000 RU. […] Regeneration at the level of the anti-H6 tag capture antibody was achieved by 2 pulses of 10 mM glycine/HCl pH 2.0 for 60 s. Data were double-referenced against the unimmobilized flow cell 1 and a zero concentration of the analyte. The sensorgrams of the analytes were fitted to a simple 1:1 Langmuir interaction model.

[4] = molecular target: T3, hu N(A2B2)A-avi-His; assay: as above
Procedure: as §1

T4 sequence (chain, as listed by the source limits assumed): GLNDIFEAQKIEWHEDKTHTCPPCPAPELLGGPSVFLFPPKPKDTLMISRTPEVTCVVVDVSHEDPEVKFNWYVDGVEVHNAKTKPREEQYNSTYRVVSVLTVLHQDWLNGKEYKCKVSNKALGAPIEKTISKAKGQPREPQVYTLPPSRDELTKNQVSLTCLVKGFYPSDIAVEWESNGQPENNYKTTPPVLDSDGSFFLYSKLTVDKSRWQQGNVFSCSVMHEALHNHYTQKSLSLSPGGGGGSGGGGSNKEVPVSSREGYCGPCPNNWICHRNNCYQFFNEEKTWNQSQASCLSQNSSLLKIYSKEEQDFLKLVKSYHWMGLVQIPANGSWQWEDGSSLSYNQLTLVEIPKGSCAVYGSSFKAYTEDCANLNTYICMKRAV

Binder	OD max [1]	EC50 [2]	Kd [3]	Kd [4]
NKG2D×CEA bispecific antibody in M format, P1AE4972 (395 C50S, non-humanized) / huA5B7 (bispecific antibody, V domains shown, also called non-humanized comparator) VH 1: QEQLEQSGGGLVTPGGSLKLCCTASGFDFNTFWMTWVRQAPGKGLEWIGSIHGGSGSRDYASWVNGRFTLSRDIDQSTACLQVNSLTAADTAMYYCARPGYRSWSKTFDLWGQGTMVTVSS VL 1: DIQMTQSPSSLSASVGDRVTITCRASQDISGALNWYQQKPGKAPNLLIYAASSLQSGVPSRFSGSGSGTDYTLTISSLQPEDFATYYCQQANSFPLTFGGGTKVEIK VH 2: EVQLLESGGGLVQPGGSLRLSCAASGFTFTDYYMNWVRQAPGKGLEWLGFIGNKANAYTTEYSASVKGRFTISRDKSKNTLYLQMNSLRAEDTATYYCTRDRGLRFYFDYWGQGTTVTVSS VL 2: EIVLTQSPATLSLSPGERATLSCRASSSVTYIHWYQQKPGQAPRSWIYATSNLASGIPARFSGSGSGTDFTLTISSLEPEDFAVYYCQHWSSKPPTFGQGTKLEIK	–	8.47 nM	10.5 nM	3.34 nM
NKG2D×CEA bispecific antibody in M format, P1AE4977 / huA5B7 (bispecific antibody, V domains shown) VH 1: EVQLLESGGGLVQPGGSLRLSCAASGFDFNTFWMTWVRQAPGKGLEWVGSIHGGSGSRDYADSVKGRFTISRDIDQSTAYLQMNSLRAEDTAVYYCARPGYRSWSKTFDLWGQGTTVTVSS VL 1: DIQMTQSPSSLSASVGDRVTITCRASQDISGALNWYQQKPGKAPNLLIYAASSLQSGVPSRFSGSGSGTDYTLTISSLQPEDFATYYCQQANSFPLTFGGGTKVEIK VH 2: EVQLLESGGGLVQPGGSLRLSCAASGFTFTDYYMNWVRQAPGKGLEWLGFIGNKANAYTTEYSASVKGRFTISRDKSKNTLYLQMNSLRAEDTATYYCTRDRGLRFYFDYWGQGTTVTVSS VL 2: EIVLTQSPATLSLSPGERATLSCRASSSVTYIHWYQQKPGQAPRSWIYATSNLASGIPARFSGSGSGTDFTLTISSLEPEDFAVYYCQHWSSKPPTFGQGTKLEIK	–	19.6 nM	22.9 nM	3.77 nM
NKG2D×CEA bispecific antibody in M format, P1AE4973 / huA5B7 (bispecific antibody, V domains shown) VH 1: EVQLLESGGGLVQPGGSLRLSCAASGFDFNTFWMTWVRQAPGKGLEWVGSIHGGSGSRDYADSVKGRFTISRDNSKNTLYLQMNSLRAEDTAVYYCARPGYRSWSKTFDLWGQGTTVTVSS VL 1: DIQMTQSPSSLSASVGDRVTITCRASQDISGALNWYQQKPGKAPNLLIYAASSLQSGVPSRFSGSGSGTDYTLTISSLQPEDFATYYCQQANSFPLTFGGGTKVEIK VH 2: EVQLLESGGGLVQPGGSLRLSCAASGFTFTDYYMNWVRQAPGKGLEWLGFIGNKANAYTTEYSASVKGRFTISRDKSKNTLYLQMNSLRAEDTATYYCTRDRGLRFYFDYWGQGTTVTVSS VL 2: EIVLTQSPATLSLSPGERATLSCRASSSVTYIHWYQQKPGQAPRSWIYATSNLASGIPARFSGSGSGTDFTLTISSLEPEDFAVYYCQHWSSKPPTFGQGTKLEIK	–	17.6 nM	14.5 nM	2.55 nM
NKG2D×CEA bispecific antibody in M format, P1AE4978 / huA5B7 (bispecific antibody, V domains shown) VH 1: EVQLVESGGGLVQPGGSLRLSCAASGFDFNTFWMTWVRQAPGKGLEWVGSIHGGSGSRDYADSVKGRFTISADIDQSTAYLQMNSLRAEDTAVYYCARPGYRSWSKTFDLWGQGTTVTVSS VL 1: DIQMTQSPSSLSASVGDRVTITCRASQDISGALNWYQQKPGKAPNLLIYAASSLQSGVPSRFSGSGSGTDYTLTISSLQPEDFATYYCQQANSFPLTFGGGTKVEIK VH 2: EVQLLESGGGLVQPGGSLRLSCAASGFTFTDYYMNWVRQAPGKGLEWLGFIGNKANAYTTEYSASVKGRFTISRDKSKNTLYLQMNSLRAEDTATYYCTRDRGLRFYFDYWGQGTTVTVSS VL 2: EIVLTQSPATLSLSPGERATLSCRASSSVTYIHWYQQKPGQAPRSWIYATSNLASGIPARFSGSGSGTDFTLTISSLEPEDFAVYYCQHWSSKPPTFGQGTKLEIK	–	35.5 nM	37.4 nM	3.84 nM
NKG2D×CEA bispecific antibody in M format, P1AE4975 / huA5B7 (bispecific antibody, V domains shown) VH 1: EVQLLESGGGLVQPGGSLRLSCAASGFDFNTFWMTWVRQAPGKGLEWVGSIHGGSGSRDYADSVKGRFTISRDNSKNTAYLQMNSLRAEDTAVYYCARPGYRSWSKTFDLWGQGTTVTVSS VL 1: DIQMTQSPSSLSASVGDRVTITCRASQDISGALNWYQQKPGKAPNLLIYAASSLQSGVPSRFSGSGSGTDYTLTISSLQPEDFATYYCQQANSFPLTFGGGTKVEIK VH 2: EVQLLESGGGLVQPGGSLRLSCAASGFTFTDYYMNWVRQAPGKGLEWLGFIGNKANAYTTEYSASVKGRFTISRDKSKNTLYLQMNSLRAEDTATYYCTRDRGLRFYFDYWGQGTTVTVSS VL 2: EIVLTQSPATLSLSPGERATLSCRASSSVTYIHWYQQKPGQAPRSWIYATSNLASGIPARFSGSGSGTDFTLTISSLEPEDFAVYYCQHWSSKPPTFGQGTKLEIK	–	14.9 nM	18.6 nM	3.66 nM

Next, values leading:

OD max [1]	EC50 [2]	Kd [3]	Kd [4]	Binder
0.1 OD	–	–	–	anti-NKG2D antibody clone 014 (antibody, V domains shown, From transgenic rabbits) VH: EVQLLESGGGLVQPGGSLRLSCAASGFTFSSYAMSWVRQAPGKGLEWVSRISDGGGTIYYTDSVKGRFTIARDNSKNTLYLEMKSLRAEDTAVYYCAKHRLYDSIGAYAMDVWGQGTTVAVSS VL: DIQMTQSPSSLSASVGDRVTITCRASQSISSYLNWYQQKPGKAPKLLIYDASNLETGVPSRFSGSGSGTDFTLTISSLQPEDFATYYCQQANSFPLTFGPGTKVDIK
–	68.2 nM	46.3 nM	3.23 nM	NKG2D×CEA bispecific antibody in M format, P1AE4981 / huA5B7 (bispecific antibody, V domains shown) VH 1: QEQLQESGPGLVKPSETLSLTCTVSGFDFNTFWMTWIRQPPGKGLEWIGSIHGGSGSRDYNPSLKSRVTISVDIDQNQFSLKLSSVTAADTAVYYCARPGYRSWSKTFDLWGQGTTVTVSS VL 1: DIQMTQSPSSLSASVGDRVTITCRASQDISGALNWYQQKPGKAPNLLIYAASSLQSGVPSRFSGSGSGTDYTLTISSLQPEDFATYYCQQANSFPLTFGGGTKVEIK VH 2: EVQLLESGGGLVQPGGSLRLSCAASGFTFTDYYMNWVRQAPGKGLEWLGFIGNKANAYTTEYSASVKGRFTISRDKSKNTLYLQMNSLRAEDTATYYCTRDRGLRFYFDYWGQGTTVTVSS VL 2: EIVLTQSPATLSLSPGERATLSCRASSSVTYIHWYQQKPGQAPRSWIYATSNLASGIPARFSGSGSGTDFTLTISSLEPEDFAVYYCQHWSSKPPTFGQGTKLEIK
–	13.1 nM	17.2 nM	5.13 nM	NKG2D×CEA bispecific antibody in M format, P1AE4979 / huA5B7 (bispecific antibody, V domains shown) VH 1: QEQLLESGGGLVQPGGSLRLSCAASGFDFNTFWMTWVRQAPGKGLEWVGSIHGGSGSRDYADSVKGRFTISRDIDQSTAYLQMNSLRAEDTAVYYCARPGYRSWSKTFDLWGQGTTVTVSS VL 1: DIQMTQSPSSLSASVGDRVTITCRASQDISGALNWYQQKPGKAPNLLIYAASSLQSGVPSRFSGSGSGTDYTLTISSLQPEDFATYYCQQANSFPLTFGGGTKVEIK VH 2: EVQLLESGGGLVQPGGSLRLSCAASGFTFTDYYMNWVRQAPGKGLEWLGFIGNKANAYTTEYSASVKGRFTISRDKSKNTLYLQMNSLRAEDTATYYCTRDRGLRFYFDYWGQGTTVTVSS VL 2: EIVLTQSPATLSLSPGERATLSCRASSSVTYIHWYQQKPGQAPRSWIYATSNLASGIPARFSGSGSGTDFTLTISSLEPEDFAVYYCQHWSSKPPTFGQGTKLEIK
